Experimental data as given in the supplement of paper PMC9170038.

System: MS2 coat protein
Experiment: apparent KD of MS2 coat protein; designed switch direction (-1 OFF switch, 1 ON switch): -1; higher = weaker reporter binding
Method in brief: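 Designed RNA switches with common flanks were made on Illumina chips by stalled E. coli RNA polymerase. Titration with SNAP-549-labelled MS2 coat protein doubled from 0.7 or 1.5 nM up to 3 µM. Apparent KD is each design's median over clusters after curve-fitting normalised fluorescence.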

[1] = Eterna round: R95, input ligand: FMN 200 uM
[2] = Eterna round: R95, input ligand: microRNA oligo, concentration not stated
[3] = Eterna round: R95, input ligand: none
[4] = input ligand: microRNA oligo, concentration not stated

Sequence	apparent KD of MS2 coat protein [2] [nM]	apparent KD of MS2 coat protein (input ligand: FMN 200 uM) [nM]	apparent KD of MS2 coat protein (input ligand: none) [nM]	other results
CCGCAAAUGCAGGAUAUCGUAUCGGAUACGAUACGAGAAGGGCGAACAUGAGGAUCACCCAUGUGUCCUAGCGG [Fiskers Ex 6 - 40] (puzzle: Exclusion 6)	40.3	–	–	apparent KD of MS2 coat protein [1]: 34.7 nM; apparent KD of MS2 coat protein [3]: 51.6 nM
CCGCAAAUGGAGGAUAUCGUAUCGGAUACGAUACGAGAAGGCUAUACAUGAGGAUCACCCAUGUGUCCUAGCGG [Fiskers Ex 6 - 46] (puzzle: Exclusion 6)	11.4	–	–	–
CCGCAGCGGUAGGAUAUUAUGACGUCAUGGGCAUAAGAAGGACCGACAUGAGGAUCACCCAUGUUGGGUGCCCG [EX6 C.24] (Eterna round: R97, puzzle: Exclusion 6)	–	33.7	21.7	–
CCGCAUAUGCAGGAUAUCGUAUCGGAAACGAUACGAGAAGGGUAAACAUGAGGAUCACCCAUGUUCCUUAACGG [Fiskers Ex 6 - 28] (puzzle: Exclusion 6)	14.6	–	–	–
CCGCGCCGGCGAGGAUAUUAGAAAGGAAGUGUAUAAGAAGGCGCCAUGCGCGAACAUGAGGAUCACCCAUGUGCCGCUCGUGUA [PowerStrip EXNG 1.24] (Eterna round: R96, puzzle: Exclusion NG 1)	–	39.7	23.1	apparent KD of MS2 coat protein [4]: 15.4 nM
CCGCUCCGUGUAGGAUAUCGGCGUACCCUGCGCCGAGAAGGACAUGAGGAUCACCCAUGUAUGUUAUUAUCACGCGUGGCGCAC [Design 74] (Eterna round: R96, puzzle: Exclusion NG 1)	–	19.8	20.2	apparent KD of MS2 coat protein [4]: 14.6 nM
CCGCUGCAAGGAUAUACUUGCGGUGGUGCUCGAGAUCUUUUACUUGAGGAUCACCCAAGUAGAAGGUGCAAAAC [jl-ex2.4.53 ViennaUCT mod] (Eterna round: R97, puzzle: Exclusion 2)	–	26.2	17.9	–
CCGGAAAGGAAGGAUAUGCUAGACGAUAGUCUAGCAGAAGGUCCUACAUGAGGAUCACCCAUGUGGCCUCCCGG [Mat - Exclusion 6 - Eli Mod - D47] (Eterna round: R97, puzzle: Exclusion 6)	–	680	114	–
CCGGAAAUACAGGAUAUAGGAGUCAAUAGACUCCUAGAAGGGUAUACAUGAGGAUCACCCAUGUGUCCUACCGG [Fiskers Ex 6 - 66] (Eterna round: R96, puzzle: Exclusion 6)	–	39.9	27.7	apparent KD of MS2 coat protein [4]: 23.3 nM
CCGGAAAUACAGGAUAUAGGAGUCAAUAGACUCCUAGAAGGGUAUACAUGAGGAUCACCCAUGUGUCCUACCGG [Fiskers Ex 6 - 66] (puzzle: Exclusion 6)	25.1	–	–	–
CCGGAAAUAGAGGAUAUAGGAGUCGAUAGACUCCUAGAAGGCUAUACAUGAGGAUCACCCAUGUGUCCUACCGG [Fiskers Ex 6 - 65] (puzzle: Exclusion 6)	16.6	–	–	–
CCGGAUAUGCAGGAUAUCGAAUCGGAAACGAUUCGAGAAGGGUAUACAUGAGGAUCACCCAUGUGUCCUACCGG [Mat - Exclusion 6 - Eli Mod - D87] (puzzle: Exclusion 6)	19.4	–	–	–
CCGGAUAUGCAGGAUAUCGUAACGGAAACGUUACGAGAAGGGUAUACAUGAGGAUCACCCAUGUGUCCUACCGG [Mat - Exclusion 6 - Eli Mod - D86] (puzzle: Exclusion 6)	21.1	–	–	–
CCGGCUGCUGUGAGGAUAUGCCUGCGCGCCCGCGGGCAGAAGGCACAUGAGGAUCACCCAUGUCCUGCGGUCCC [salish99_bmx4_r4_119] (Eterna round: R97, puzzle: Brourd's mod of Exclusion 4)	–	45.2	18.2	–
CCGGUAGCAUAGGAUAUCGCCAACGUUGUAGUACGAGAAGGGUGCACAUGAGGAUCACCCAUGUUUCCUGGCCG [Eternabot (L2) Solution 63] (Eterna round: R97, puzzle: Exclusion 6)	–	107	131	–
CCGGUUGGCGCAGGAUAUACAUGAGGAUCACCCAUGUUCGUGAGGAUCACCCAUGAGUUUUUGUUGUAGAAGGGUGGCCCGGCC (Eterna round: R96, puzzle: Exclusion NG 2)	–	24.4	28.5	apparent KD of MS2 coat protein [4]: 16 nM
CCGUGCACGCUGCGCUCCUACAUGAGGAUCACCCAUGUGGUCCGGUGGCGUGGGUCGCCGGACUUGGCUCGUCUUGU [salish99_S_TOV1_R5_019] (Eterna round: R97, puzzle: Sensor, turn-off variant 1)	–	83.1	–	–
CCGUGCACGCUGCGGUCCUACAUGAGGAUCACCCAUGUGGUCUGGUGGCGUGGGUCGCCGGACUUGGCUCGUCUUGA [salish99_S_TOV1_R5_021] (Eterna round: R97, puzzle: Sensor, turn-off variant 1)	–	18.8	19.2	–
CCUAGCCUAAAAUCACGCAAGCUUUUUGCUUGUCUUAAGACAUGAGGAUCACCCAUGUCCGGGCUGAACUUAUGGAA [Veorxe] (puzzle: Sensor v3, turn-off variant 2)	23.2	–	–	apparent KD of MS2 coat protein [1]: 17.8 nM; apparent KD of MS2 coat protein [3]: 16.6 nM
CCUAUGUGAGGAUAUGUCUGGUCUUCUUUUGUUUUUUACAGACAGAAGGCACAUGAGGAUCACCCAUGUCAGAC [Ex4 - 3 - 47] (puzzle: Exclusion 4)	17	–	–	–
CCUAUGUUAGGAUAUCUAGUAAGAGGCCCAUAGGGCCGUGCAGAGAAGGGACAUGAGGAUCACCCAUGUGUCAC [Eternabot (L1) Solution 86] (Eterna round: R97, puzzle: Exclusion 4)	–	26.7	34.6	–
CCUCCACAUGAGGAUCACCCAUGUCAGGAUAUCGUGUGUGCGUUUUCGGUCUUUCGCGCGAGAAGGGACGACUG (puzzle: Exclusion 1)	27.5	–	–	–
CCUCCACAUGAGGAUCACCCAUGUCAGGAUAUCGUGUGUUUUUUUUCGGUCGUGCGUGCGAGAAGGGACGUCUU (puzzle: Exclusion 1)	24.8	–	–	–
CCUCCGCAUUAGGAUAUCGUCACAGAAAUGUGACGAGAAGGAAUGACAUGAGGAUCACCCAUGUUAACGUGAUG [Mod of Brourd 15 - Jieux - Exclusion 6] (Eterna round: R97, puzzle: Exclusion 6)	–	276	48.7	–
CCUCCGCAUUAGGAUAUCGUCCCGGAAACGGGACGAGAAGGAAUGACAUGAGGAUCACCCAUGUUAACGUGAUG [Mod of Brourd 18 - Jieux - Exclusion 6] (Eterna round: R97, puzzle: Exclusion 6)	–	304	48.2	–
CCUCGACAUGAGGAUCACCCAUGUCAGGAUAUUGUGUUUUGGGUUUUUUACCUUUAGGCAAGAAGGGAUGUGUG [LRO-Excl1-17] (puzzle: Exclusion 1)	16.1	–	–	–
CCUCGCAGGCAAGGAUAUCCUACAUUGUUCUGGCCCGGGCAUGCUACAUGAGGAUCACCCAUGUGGGAGAAGGUGCGCCACGGC [Design 31] (Eterna round: R96, puzzle: Exclusion NG 2)	–	48.3	42.2	apparent KD of MS2 coat protein [4]: 28.1 nM
